PMC5132341, “Malaria parasite CelTOS targets the inner leaflet of cell membranes for pore-dependent disruption” (eLife, 2016)

B1: Plasmodium falciparum cell-traversal protein for ookinetes and sporozoites (PfCelTOS), amino acids 25-182 (domain or fragment)
chain: FRGNNGHNSSSSLYNGSQFIEQLNNSFTSAFLESQSMNKIGDDLAETISNELVSVLQKNSPTFLESSFDIKSEVKKHAKSMLKELIKVGLPSFENLVAENVKPPKVDPATYGIIVPVLTSLFNKVETAVGAKVSDEIWNYNSPDVSESEESLSDDFFD
notes: CelTOS of Plasmodium falciparum, UniProtKB Q8I5P1, amino acids 25-182, codon-optimized gene; No cleavage of the hexahistidine tag is described; the same preparation is detected with an anti-His antibody in the lipid strip assay, so the tag was probably kept; also called Antigen 2; source: E. coli, purified (Nickel-NTA chromatography, gel filtration on Superdex 200)

Columns and labels:
[1] = biological target: Plasmodium vivax cell-traversal protein for ookinetes and sporozoites (PvCelTOS), amino acids 36-196 (Plasmodium vivax); test: AUC; sedimentation equilibrium, 10°C, 150 mM NaCl, 10 mM HEPES pH 7.4, 12,000 and 15,000 rpm; PfCelTOS at 25, 36 and 46 µM, PvCelTOS at 29, 41 and 53 µM; single component model
[2] = biological target: the molecule itself; test: as above

| Molecule | stoichiometry N [1] | stoichiometry N [2] |
| --- | --- | --- |
| Plasmodium vivax cell-traversal protein for ookinetes and sporozoites (PvCelTOS), amino acids 36-196 (domain or fragment) | 2 |  |
| B1 |  | 2 |
